Source: patent publication US6825164 (TRUSTEES OF COLUMBIA UNIVERSITY IN THE CITY OF NEW YORK, dated 2004)
Ends that are not written are not given here.

B1: Mouse receptor for advanced glycation endproduct (RAGE) at the blood-brain barrier (receptor)
chain: GQNITARIGEPLVLSCKGAPKKPPQQLEWKLNTGRTEAWKVLSPQGGPWDSVAQILPNGSLLLPATGIVDEGTFRCRATNRRGKEVKSNYRVRVYQIPGKPEIVDPASELTASVPNKVGTCVSEGSYPAGTLSWHLDGKLLIPDGKETLVKEETRRHPETGLFTLRSELTVIPTQGGTTHPTFSCSFSLGLPRRRPLNTAPIQLRVREPGPPEGIQLLVEPEGGIVAPGGTVTLTCAISAQPPPQVHWIKDGAPLPLAPSPVLLLPEVGHADEGTYSCVATHPSHGPQESPPVSIRVTETGDEGPAEGSVGESGLGTLALALGILGGLGVVALLVGAILWRKRQPRREERKAPESQEDEEERAELNQSEEAEMPENGAGGP
notes: Endogenous RAGE on brain microvessels/endothelium of living mice (brain perfusion model); The mice in the experiments were of other strains; also called receptor for advanced glycosylation end products

What was measured:
[1] = target: B1; assay: in vivo brain perfusion with 125I-Aβ, capillary-depletion, binding to brain microvessels
Description: (§1) Injection of radioisotopes for transport studies. […] When the effects of different unlabeled molecular reagents were tested, those were injected 5 min prior to tracers injection and than simultaneously with radiolabled ligands. At predetermined times within 10 min mice were sacrificed by decapitation, and brain tissue prepared for radioactivity analysis. TCA and HPLC analysis as we described were used to determine molecular forms of uptake of radiolabeled Aβ by the BBB. Capillary-depletion technique was used to separate micravascular pellet from capillary-depleted brain to quantify in vivo binding to microvessels vs. transport into brain parenchyma, as we reported.

[2] = target: T1, Aβ1-40 human form (synthetic amyloid-beta peptide 1-40) (human, UniProt P05067 672-711, radioiodinated with Na[125I] for the transport and binding studies); assay: as above
T1 construct: domain: Aβ1-40; Stock solutions in DMSO to keep it monomeric; Aβ numbering 1-40 counts on the Aβ peptide, not on APP; also called human Aβ1-40; Amyloid β1-40 peptide
Description: as §1

| Binder | binding result [1] | binding result [2] |
| --- | --- | --- |
| DAEFGHDSGFEVRHQKLVFFAEDVGSNKGAIIGLMVGGVV (peptide, UniProt P12023 672-711, looked up, also: radioiodinated with Na[125I], position not given here, domain: Aβ1-40; also called mouse Aβ1-40; murine Aβ1-40) [Aβ1-40 murine form (synthetic amyloid-beta peptide 1-40)] | binds |  |
| B1 |  | binds |
